In data set [1] the target is E6AP LXXLL motif (Homo sapiens) (UniProt Q05086). As to the kind of experiment: SPR. The settings on record: cited from earlier work.
Data set [2] has as its target E6APwt, 16-mer LXXLL motif peptide of E6AP. In words: SPR; Biacore T200, 25 °C; biotinylated peptide reversibly captured on CAP chip (Biotin CAPture kit), MBP-E6 as analyte in two-fold dilutions from 10 µM; Tris 50 mM pH 8, NaCl 400 mM, DTT 2 mM, 0.005% polysorbate 20; steady-state analysis, 1:1 model; protein samples purified on resin N1 or N2.
Data set [3] deals with the molecule itself. In words: SEC; analytical SEC on Superdex 200 Increase 5/150 GL in Buffer A (Tris 50 mM pH 8, NaCl 400 mM, DTT 2 mM), A280; monomer and oligomer peaks assigned by column calibration; samples from different resins, elution methods and contact times. Background: SEC sorts molecules by how far they enter the pores of the column.

Values joined by “and” are separate entries in the source; they are usually repeats but may differ in a detail not shown here. Identical values can stand only once.

For orientation: Kd means the concentration at which binding is half-saturated.

For HPV16 E6 (from UniProt P03126), the Kd in data set [1] is 4150 nM.
As to “MBP-fused HPV16 E6 F47R 4C/4S (natural protein)”, in data set [2], the Kd is 1600 nM and 2000 nM.

B1: MBP-fused HPV8 E6 (natural protein)
chain: MDGQDKASNLDTNKDELPSTIKELAEALGIPLQDCLVPCNFCGNFLDFLELCEFDKKRLCLIWKNYVVTACCRCCCVATATFEFNEYYEQTVLGRDIELATGRSIFEIDVRCQNCLSFLDIIEKLDCCGRGRPFHKVRGGWKGVCRLCKHLYHDW
notes: Printed order of the fusion: MBP-6His-TEV site-E6 (vector pETM-41, NcoI/Acc65I sites); tags were not cleaved off; Expected MW 60.9 kDa; also called MBP-8E6; not shown: MBP, N-terminal, kept
With B1, in data set [3], the binding result was “binds”.

(Values after article PMC6271572, “One-step affinity purification of fusion proteins with optimal monodispersity and biological activity: application to aggregation-prone HPV E6 proteins” (Microbial Cell Factories, 2018).)
